Measurements as given in US20140179700A1.

Tests used:
[1] = test system: myelin basic protein (MBP) (Millipore)
[2] = biological target: myelin basic protein (MBP) (Millipore); assay: cell-based or functional assay

Row | MBP phosphorylation by ERK1/2 from epinephrine-treated SS RBCs compared to ERK1/2 from sham-treated cells (fold) [2] [fold] | Substance | phosphorylation of MBP by immunoprecipitated ERK1/2 (anti-phosphoMBP immunoblot) [1]
1 |  | ERK1/2 immunoprecipitated from SS RBCs | ERK1/2 immunoprecipitated from sham-treated SS RBCs was capable of phosphorylating MBP to some extent
2 | 2.1 | ERK1/2 immunoprecipitated from SS RBCs (enzyme) | 
